Our source for the koff and Kd values is paper PMC5547543 (2017).

Holding throughout (assay): SPR
The target of experiment [1] is T1, Hck (2PA-YEEI) (UniProt P08631 1-526, C-terminal tail tyrosine of the YEEI motif constitutively phosphorylated; autophosphorylated at the activation loop tyrosine (Tyr-411 of Hck)).
Experiment [2] concerns the target T1, Hck (2PA-YEEI). This is another data set of the same source.
The target in experiment [3] is T1, Hck (2PA-YEEI). The source holds these as a separate data set.

Changes are numbered by the printed parent chain. In names and notes the source's numbering stands. Where two headings read alike, the source gives them in different places.

T1 sequence (P08631 other isoform, or with tags, fused parts or gaps): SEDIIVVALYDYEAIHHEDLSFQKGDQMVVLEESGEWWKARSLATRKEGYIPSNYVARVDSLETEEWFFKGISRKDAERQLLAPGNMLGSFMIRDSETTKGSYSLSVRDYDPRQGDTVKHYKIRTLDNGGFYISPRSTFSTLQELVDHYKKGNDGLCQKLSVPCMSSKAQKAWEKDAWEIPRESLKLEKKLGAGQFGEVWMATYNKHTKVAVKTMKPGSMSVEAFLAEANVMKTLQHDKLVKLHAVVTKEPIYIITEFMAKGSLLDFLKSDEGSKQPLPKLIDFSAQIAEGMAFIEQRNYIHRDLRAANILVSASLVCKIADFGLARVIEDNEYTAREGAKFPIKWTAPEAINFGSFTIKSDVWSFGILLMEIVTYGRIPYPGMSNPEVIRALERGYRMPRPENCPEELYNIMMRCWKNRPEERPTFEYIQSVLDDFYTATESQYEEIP

B1: Chk (K387A) (enzyme)
chain: MPTQRWAPGTQCMTKCENSRPKPGELAFRKGDMVTILEACEDKSWYRAKHHSSGQEGLLAAAALRQREALSTDPKLSLMPWFHGKISGQEAIQQLQPPEDGLFLVRESARHPGDYVLCVSFGRDVIHYRVLHRDGHLTIDEAVCFCNLMDMVEHYTRDKGAICTKLVKPKRKQGAKSAEEELAKAGWLLDLQHLTLGAQIGEGEFGAVLQGEYLGQKVAVKNIKCDVTAQAFLDETAVMTKLQHRNLVRLLGVILHHGLYIVMEHVSKGNLVNFLRTRGRALVSTSQLLQFALHVAEGMEYLESKKLVHRDLAARNILVSEDLVAKVSDFGLAKAELRKGLDSSRLPVKWTAPEALKNGRFSSKSDVWSFGVLLWEVFSYGRAPYPAMSLKEVSEAVEKGYRMEPPDSCPGPVHTLMGSCWEAEPSRRPPFRKIVEKLGRELRSVGVAAPAGGQEAEGSAPTRSQDPGSGSHHHHHH
Turning to B1, the dissociation rate constant (koff) (commonly the rate constant with which the complex falls apart) in experiment [1] was 0.00036 s⁻¹.

B2: Chk (R280A) (enzyme)
chain: B1 chain with R280A, A387K
On to B2, for which, in experiment [2], binding was characterised by a dissociation constant (Kd) of 35 nM. In experiment [1], this molecule had a koff of 0.00024 s⁻¹.

B3: Chk (R382A) (enzyme)
chain: B1 chain with R382A, A387K
For the molecule B3, the dissociation rate constant (koff) in experiment [1] is 0.000322 s⁻¹.

B4: Chk (R278A) (enzyme)
chain: MPTRRWAPGTQCITKCEHTRPKPGELAFRKGDVVTILEACENKSWYRVKHHTSGQEGLLAAGALREREALSADPKLSLMPWFHGKISGQEAVQQLQPPEDGLFLVRESARHPGDYVLCVSFGRDVIHYRVLHRDGHLTIDEAVFFCNLMDMVEHYSKDKGAICTKLVRPKRKHGTKSAEEELARAGWLLNLQHLTLGAQIGEGEFGAVLQGEYLGQKVAVKNIKCDVTAQAFLDETAVMTKMQHENLVRLLGVILHQGLYIVMEHVSKGNLVNFLRTAGRALVNTAQLLQFSLHVAEGMEYLESKKLVHRDLAARNILVSEDLVAKVSDFGLAKAERKGLDSSRLPVKWTAPEALKHGKFTSKSDVWSFGVLLWEVFSYGRAPYPKMSLKEVSEAVEKGYRMEPPEGCPGPVHVLMSSCWEAEPARRPPFRKLAEKLARELRSAGAPASVSGQDADGSTSPRSQEP
In the case of B4, in experiment [2], the dissociation constant (Kd) (commonly the equilibrium constant for the complex coming apart) came out at 13 nM. Moreover, the koff in experiment [1] is 0.000195 s⁻¹.

B5: Chk (R276A) (enzyme)
chain: B4 chain with R276A, A278R
Take B5: the equilibrium dissociation constant (Kd) in experiment [2] was 56 nM. Further, the off-rate constant (koff) in experiment [1] stood at 0.000208 s⁻¹.

B6: Csk-Chk chimera (enzyme)
chain: MSAIQAAWPSGTECIAKYNFHGTAEQDLPFCKGDVLTIVAVTKDPNWYKAKNKVGREGIIPANYVQKREGVKAGTKLSLMPWFHGKITREQAERLLYPPETGLFLVRESTNYPGDYTLCVSCDGKVEHYRIMYHASKLSIDEEVYFENLMQLVEHYTSDADGLCTRLIKPKVMEGTVAAQDLTLGAQIGEGEFGAVLQGEYLGQKVAVKNIKCDVTAQAFLDETAVMTKMQHENLVRLLGVILHQGLYIVMEHVSKGNLVNFLRTRGRALVNTAQLLQFSLHVAEGMEYLESKKLVHRDLAARNILVSEDLVAKVSDFGLAKAERKGLDSSRLPVKWTAPEALKHGKFTSKSDVWSFGVLLWEVFSYGRAPYPKMSLKEVSEAVEKGYRMEPPEGCPGPVHVLMSSCWEAEPARRPPFRKLAEKLAREL
In turn, B6 yielded a Kd in experiment [3] of 1270 nM.
